Here are results for 2 molecules from paper PMC13570301.

The target in experiment [1] is T1, CHIP G33S, recombinant, C-terminal His tag, Q9UNE7-1.
T1 chain: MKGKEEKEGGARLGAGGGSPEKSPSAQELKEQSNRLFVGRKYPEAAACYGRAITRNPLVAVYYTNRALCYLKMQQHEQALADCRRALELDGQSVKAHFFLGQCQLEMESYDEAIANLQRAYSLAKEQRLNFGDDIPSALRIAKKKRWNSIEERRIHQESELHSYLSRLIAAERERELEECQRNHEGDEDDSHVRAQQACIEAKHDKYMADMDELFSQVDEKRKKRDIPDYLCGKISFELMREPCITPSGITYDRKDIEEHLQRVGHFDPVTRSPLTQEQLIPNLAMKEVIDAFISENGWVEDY
Briefly: mass photometry. The conditions noted are these: chain shown with the change, self-association, fraction weighted by number of monomeric subunits, n = 3, read off a plot.

Experiment [2] addresses T2, CHIP-myc wild type (pcDNA3-CHIP-myc) (human), Q9UNE7.
T2 chain: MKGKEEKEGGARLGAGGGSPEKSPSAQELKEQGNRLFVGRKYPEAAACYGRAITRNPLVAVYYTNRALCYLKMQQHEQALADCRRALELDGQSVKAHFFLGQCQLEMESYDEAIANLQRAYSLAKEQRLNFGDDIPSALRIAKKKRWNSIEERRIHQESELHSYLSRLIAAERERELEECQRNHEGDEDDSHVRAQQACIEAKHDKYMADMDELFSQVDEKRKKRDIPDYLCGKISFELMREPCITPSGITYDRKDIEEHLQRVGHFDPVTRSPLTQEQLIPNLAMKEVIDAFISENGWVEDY
Nature of the experiment: native gel or EMSA; Blue native PAGE and immunoblot of lysates (Native PAGE sample buffer, 1% digitonin) of transfected COS-7 cells kept at 37 °C or heat-shocked at 42 °C for 2 h; self-association. The conditions noted are these: remark: other sources report otherwise. On the technique in general: A gel shift assay detects complexes by their altered migration in electrophoresis.

B1: CHIP wild type, recombinant, C-terminal His tag (pET30-CHIP-His), Q9UNE7-1 G33S (protein)
chain: MKGKEEKEGGARLGAGGGSPEKSPSAQELKEQSNRLFVGRKYPEAAACYGRAITRNPLVAVYYTNRALCYLKMQQHEQALADCRRALELDGQSVKAHFFLGQCQLEMESYDEAIANLQRAYSLAKEQRLNFGDDIPSALRIAKKKRWNSIEERRIHQESELHSYLSRLIAAERERELEECQRNHEGDEDDSHVRAQQACIEAKHDKYMADMDELFSQVDEKRKKRDIPDYLCGKISFELMREPCITPSGITYDRKDIEEHLQRVGHFDPVTRSPLTQEQLIPNLAMKEVIDAFISENGWVEDY
B1: in experiment [1] (parent: est. 0.12), the other: fraction of total CHIP in octamer (8n) stood at 0.13. Moreover, the other: fraction of total CHIP in hexamer (6n) in experiment [1] (parent: est. 0.23) worked out at 0.2. The other: fraction of total CHIP in dimer (2n) in experiment [1] (parent: est. 0.32) came out at 0.38. Also, the other: fraction of total CHIP in tetramer (4n) in experiment [1] (parent: est. 0.33) was determined as 0.3.

B2: CHIP-myc wild type (pcDNA3-CHIP-myc), Q9UNE7-1 1-303 (enzyme)
chain: MKGKEEKEGGARLGAGGGSPEKSPSAQELKEQGNRLFVGRKYPEAAACYGRAITRNPLVAVYYTNRALCYLKMQQHEQALADCRRALELDGQSVKAHFFLGQCQLEMESYDEAIANLQRAYSLAKEQRLNFGDDIPSALRIAKKKRWNSIEERRIHQESELHSYLSRLIAAERERELEECQRNHEGDEDDSHVRAQQACIEAKHDKYMADMDELFSQVDEKRKKRDIPDYLCGKISFELMREPCITPSGITYDRKDIEEHLQRVGHFDPVTRSPLTQEQLIPNLAMKEVIDAFISENGWVEDY
A word on the stoichiometry N: it is the number of molecules, sites or subunits per partner or assembly. Take B2: in experiment [2], the stoichiometry N amounted to 2.
